Measurements: patent US20030108992A1 (US Dept. of Health and Human Services, published 2003)

Target: T1, p80 TNFR (endogenous) (UniProt P20333 23-461, limits assumed)
T1 construct: whole, on cells; also called TNFR2; p75
T1 sequence (looked up): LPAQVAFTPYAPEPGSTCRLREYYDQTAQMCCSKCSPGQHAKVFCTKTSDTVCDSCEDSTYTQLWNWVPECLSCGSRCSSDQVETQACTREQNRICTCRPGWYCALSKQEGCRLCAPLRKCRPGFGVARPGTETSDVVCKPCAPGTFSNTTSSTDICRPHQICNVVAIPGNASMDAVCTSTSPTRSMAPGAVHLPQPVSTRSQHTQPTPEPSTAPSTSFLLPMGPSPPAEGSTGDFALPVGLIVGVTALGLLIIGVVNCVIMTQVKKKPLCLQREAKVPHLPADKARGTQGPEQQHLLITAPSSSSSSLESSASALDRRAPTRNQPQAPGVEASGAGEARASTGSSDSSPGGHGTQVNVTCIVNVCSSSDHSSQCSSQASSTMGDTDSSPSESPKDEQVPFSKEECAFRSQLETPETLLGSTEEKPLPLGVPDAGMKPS
Assay: DTSSP crosslinking of H9 cells, anti-p60 immunoprecipitation, Western blot
Description: H9 lymphoma cells were washed and resuspended in PBS. […] Cells were then treated with 2 mM of the crosslinker DTSSP (Pierce) for 30 minutes and the reaction was quenched with 20 mM Tris.Cl [pH 7.5] for 15 minutes on ice. The cells were lysed in 150 mM NaCl, 20 mM Tris.Cl [pH 7.5], 1 mM EDTA, 30 mM NaF, 2 mM b-glycerophosphate and 1 mM sodium orthovanadate with protease inhibitors added (Boehringer Mannheim). […] Densitometry was performed with a Kodak Image Station 440.

binding result: no binding
B1: p60 TNFR (endogenous) (receptor, UniProt P19438 30-455, looked up)
chain: LVPHLGDREKRDSVCPQGKYIHPQNNSICCTKCHKGTYLYNDCPGPGQDTDCRECESGSFTASENHLRHCLSCSKCRKEMGQVEISSCTVDRDTVCGCRKNQYRHYWSENLFQCFNCSLCLNGTVHLSCQEKQNTVCTCHAGFFLRENECVSCSNCKKSLECTKLCLPQIENVKGTEDSGTTVLLPLVIFFGLCLLSLLFIGLMYRYQRWKSKLYSIVCGKSTPEKEGELEGTTTKPLAPNPSFSPTPGFTPTLGFSPVPSSTFTSSSTYTPGDCPNFAAPRREVAPPYQGADPILATALASDPIPNPLQKWEDSAHKPQSLDTDDPATLYAVVENVPPLRWKEFVRRLGLSDHEIDRLELQNGRCLREAQYSMLATWRRRTPRREATLELLGRVLRDMDLLGCLEDIEEALCGPAALPPAPSLLR
notes: whole, on cells; also called endogenous p60 receptor; TNFR1
